Reference: patent US20080274055A1 (US Dept. of Health and Human Services, published 2008)
Numbering of substitutions follows the chain as printed.

T1: carcinoembryonic antigen (CEA) (human, UniProt P06731 35-685)
T1 sequence (looked up): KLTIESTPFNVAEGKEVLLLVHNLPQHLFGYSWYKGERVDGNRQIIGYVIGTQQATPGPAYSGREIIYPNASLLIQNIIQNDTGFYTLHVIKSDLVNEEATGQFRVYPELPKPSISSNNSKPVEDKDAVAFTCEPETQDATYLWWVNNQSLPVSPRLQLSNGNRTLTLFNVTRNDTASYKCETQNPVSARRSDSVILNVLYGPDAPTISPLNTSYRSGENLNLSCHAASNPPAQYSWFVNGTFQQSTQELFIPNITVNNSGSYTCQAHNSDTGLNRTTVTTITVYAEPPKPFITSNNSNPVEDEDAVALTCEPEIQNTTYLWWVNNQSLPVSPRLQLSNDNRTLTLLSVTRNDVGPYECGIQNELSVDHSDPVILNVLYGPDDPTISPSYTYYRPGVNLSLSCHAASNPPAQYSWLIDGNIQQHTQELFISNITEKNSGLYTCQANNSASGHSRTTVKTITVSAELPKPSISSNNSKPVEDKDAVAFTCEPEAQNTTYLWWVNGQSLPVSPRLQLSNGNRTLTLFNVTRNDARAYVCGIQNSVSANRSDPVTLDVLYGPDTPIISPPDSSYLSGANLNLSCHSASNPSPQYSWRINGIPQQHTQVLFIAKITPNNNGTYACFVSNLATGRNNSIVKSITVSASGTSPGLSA

B1: murine COL-1 monoclonal antibody (antibody, V domains shown)
VH: EVQLQQSGAELVRSGASVKMSCTASGFNIKDYYMHWVKQRPEQGLEWIGWIDPENGDTEYAPKFQGKATMTTDTSSNTAYLQLSSLTSEDTAVYYCNTRGLSTMITTRWFFDVWGAGTTVAVSS
VL: DIVLTQSPASLTVSLGLRATISCRASKSVSASGYSYMHWYQQRPGQPPKLLIYLASNLQSGVPARFSGSGSGTDFTLNIHPVEEEDAATYYCQHSRELPTFGGGTKLEIK
notes: Whole murine antibody; also called mCOL-1; muCOL-1
B2: chimeric COL-1 (antibody, V domains shown)
VH: B1 VH
VL: B1 VL
B3: HuCOL-1AbrCDR (antibody, V domains shown)
VH: EVQLVQSGAEVVKPGASVKMSCKASGFNIKDYYMHWVKQRPEQGLEWIGWIDPENGDTEYAQKFQGKATMTTDTSTSTAYLELSSLRSEDTAVYYCNTRGLSTMITTRWFFDVWGAGTLVTVSS
VL: DIVLTQSPASLAVSLGERATINCKSSQSVSASGYSYMHWYQQKPGQPPKLLIYLASNLQSGVPARFSGSGSGTDFTLTISSVQAEDVATYYCQHSRELPTFGGGTKLEIK
notes: also called FRV1; HuCOL-1 24,25,27L/61H
B4: FRV11 (antibody, name in Kabat numbering, V domains shown)
VH: B3 VH with E1Q, V12K, M20V, F27Y, K38R, I48M, K67R, A68V, A79V, L81M
VL: B3 VL with L4M, V82L, L107V
notes: Kabat positions (see notes of FRV2 and FRV8); also called HuCOL-1AbrCDR framework variant 11
B5: FRV12 (antibody, name in Kabat numbering, V domains shown)
VH: B3 VH with E1Q, V12K, M20V, F27Y, K38R, I48M, K67R, A68V, A79V, L81M
VL: B3 VL with L4M, A64D, V82L, T89V, L107V
notes: Kabat positions (see notes of FRV2 and FRV8); also called HuCOL-1AbrCDR framework variant 12
B6: FRV9 (antibody, name in Kabat numbering, V domains shown)
VH: B3 VH with M20V, F27Y, K38R, I48M, K67R, A68V, A79V, L81M
VL: B3 VL with L4M, A64D, V82L, T89V, L107V
notes: Kabat positions (see notes of FRV2 and FRV8); also called HuCOL-1AbrCDR framework variant 9
B7: FRV3 (antibody, name in Kabat numbering, V domains shown)
VH: B3 VH
VL: B3 VL with L4M, A64D, V82L, T89V, L107V
notes: Kabat positions (see note of FRV2); also called HuCOL-1AbrCDR framework variant 3
B8: HuCOL-1 (antibody, V domains shown)
VH: B3 VH with R40A, E42G, Q62P
VL: B3 VL with K24R, S25A, Q27K
notes: Whole humanized antibody; also called humanized COL-1; ATCC PTA-4661
B9: FRV6 (antibody, name in Kabat numbering, V domains shown)
VH: B3 VH with M20V, K38R, I48M, K67R, A79V, L81M
VL: B3 VL with L4M, A64D, V82L, T89V, L107V
notes: Kabat positions (see notes of FRV2 and FRV5); also called HuCOL-1AbrCDR framework variant 6
B10: FRV2 (antibody, name in Kabat numbering, V domains shown)
VH: B3 VH
VL: B3 VL with L4M, V82L, L107V
notes: also called HuCOL-1AbrCDR framework variant 2
B11: HuCOL-1AbrCDR framework variant 10 (FRV10) (antibody, V domains shown)
VH: B3 VH with E1Q, V12K, M20V, F27Y, K38R, I48M, K67R, A68V, A79V, L81M
VL: B3 VL
notes: also called HuCOL-1FRV10
B12: FRV8 (antibody, name in Kabat numbering, V domains shown)
VH: B3 VH with M20V, F27Y, K38R, I48M, K67R, A68V, A79V, L81M
VL: B3 VL with L4M, V82L, L107V
notes: Kabat positions; also called HuCOL-1AbrCDR framework variant 8
B13: HuCOL-1AbrCDR framework variant 7 (FRV7) (antibody, V domains shown)
VH: B3 VH with M20V, F27Y, K38R, I48M, K67R, A68V, A79V, L81M
VL: B3 VL
notes: also called HuCOL-1FRV7; FR7
B14: FRV5 (antibody, name in Kabat numbering, V domains shown)
VH: B3 VH with M20V, K38R, I48M, K67R, A79V, L81M
VL: B3 VL with L4M, V82L, L107V
notes: Kabat positions; also called HuCOL-1AbrCDR framework variant 5
B15: HuCOL-1AbrCDR framework variant 4 (FRV4) (antibody, V domains shown)
VH: B3 VH with M20V, K38R, I48M, K67R, A79V, L81M
VL: B3 VL
notes: also called HuCOL-1FRV4

Legend:
[1] = biological target: T1, carcinoembryonic antigen (CEA); assay: competition RIA against 125I-mCOL-1; reference of the fold not named
Description: (§1) Competition RIA: The relative antigen-binding affinity of HuCOL-1, HuCOL-1AbrCDR and HuCOL-1AbrCDR antibodies with framework-substitutions was determined using a competition RIA as described previously (De Pascalis et al., J Immunol., 169:3076-3084, 2002). Twenty-five μl of serial dilutions of the antibodies to be tested, as well as mCOL-1, chimeric COL-1, and HuCOL-1 (positive controls) and HuIgG (negative control), prepared in 1% BSA in PBS, were added to microtiter plates containing 10 ng of […] saturated with 5% BSA in PBS. ¹²⁵I-labeled mCOL-1 (100,000 cpm in 25 μl) was then added to each well. After an overnight incubation at 4° C., the plates were washed and the bound radioactivity was counted in a γ-scintillation counter.
(§2) Competition RIA experiments were performed to determine the relative CEA-binding affinity of chimeric COL-1, HuCOL-1, HuCOL-1AbrCDR, and the different HuCOL-1AbrCDR-derived antibodies. Serial dilutions of unlabeled antibodies were used to compete with the binding of ¹²⁵I-mCOL-1 (FIGS. 4A, 4B and 4C) to CEA.

[2] = biological target: T1, carcinoembryonic antigen (CEA); assay: competition RIA, unlabeled antibody against 125I-mCOL-1 on CEA; modified Scatchard
Description: as §1, §2

[3] = biological target: T1, carcinoembryonic antigen (CEA); assay: competition RIA: unlabeled antibody against 125I-mCOL-1 for binding to CEA, % inhibition against amount competitor Ab (ng), log axis
Excerpt: FIGS. 4A, 4B, and 4C are a series of graphs of a competition radioimmunoassay of HuCOL-1AbrCDR framework variants using ¹²⁵I-mCOL-1. Serial dilutions of unlabeled antibodies were used to compete with the binding of ¹²⁵ImCOL-1. The data was divided into three individual graphs to facilitate viewing. FIG. 4A compares the binding of unlabeled murine COL-1 (muCOL-1), chimeric COL-1 (cCOL-1), HuCOL-1, FRV1 (HuCOL-1AbrCDR), and human IgG (HuIgG). FIG. 4B compares the binding of unlabeled murine HuCOL-1AbrCDR, FRV2, FRV3, FRV4, FRV7, and FRV10. FIG. 4C compares the binding of unlabeled murine HuCOL-1AbrCDR, FRV5, FRV6, FRV8, FRV9, FRV11, and FRV12.
as §1, §2

[4] = biological target: anti-V region antibodies to COL-1 present in the serum of patient two; assay: SPR competition, serum of patient two; reference HuCOL-1
[5] = biological target: anti-V region antibodies to COL-1 present in the serum of patient one; assay: SPR competition, serum of patient one; reference HuCOL-1
[6] = biological target: T1, carcinoembryonic antigen (CEA); assay: competition RIA against 125I-mCOL-1 on CEA; modified Scatchard
Description: as §1, §2

[7] = biological target: anti-V region antibodies to COL-1 present in the serum of patient two; assay: SPR competition; soluble antibody against immobilized HuCOL-1 for serum anti-V region antibodies
[8] = biological target: anti-V region antibodies to COL-1 present in the serum of patient one; assay: as above
[9] = biological target: anti-V region antibodies to COL-1 present in the serum of patient two; assay: SPR competition; reference HuCOL-1; lower end tied to serum EM by Table IV (9.7 against 1.9)
[10] = biological target: anti-V region antibodies to COL-1 present in the serum of patient one; assay: SPR competition; reference HuCOL-1; upper end tied to serum MB by Table IV (28.5 against 4.9)

Row | Binder | Fold Difference [1] [fold] | Ka [2] [M⁻¹] | Ka [6] [M⁻¹] | also measured
1 | B1 | 1 | 2.74e+08 | – | IC50 (read off the curve) [3]: ~20 ng
2 | B2 | 1.4 | 1.99e+08 | – | IC50 (read off the curve) [3]: ~30 ng
3 | B3 | 1.2 | 2.3e+08 | 2.32e+08 | fold higher IC50 than HuCOL-1 [4]: 1.5 fold; fold higher IC50 than HuCOL-1 [5]: 1.5 fold; IC50 [7]: 2.9 nM; IC50 [8]: 6.9 nM
4 | B4 | 4.5 | 6.1e+07 | – | –
5 | B5 | 5.6 | 4.9e+07 | – | –
6 | B6 | 4.5 | 6.1e+07 | – | –
7 | B7 | 8.6 | 3.2e+07 | – | –
8 | B8 | 1 | 2.78e+08 | 2.78e+08 | IC50 [7]: 1.9 nM; IC50 [8]: 4.9 nM
9 | B9 | 2.8 | 1e+08 | – | –
10 | B10 | 9.5 | 2.9e+07 | – | –
11 | B11 | 0.9 | 3.04e+08 | 3.04e+08 | fold higher IC50 than HuCOL-1 [9]: 5 to 6 fold; fold higher IC50 than HuCOL-1 [10]: 5 to 6 fold; IC50 [7]: 9.7 nM; IC50 [8]: 28.5 nM
12 | B12 | 3.6 | 7.7e+07 | – | –
13 | B13 | 0.9 | 3.07e+08 | 3.07e+08 | –
14 | B14 | 2.7 | 1.01e+08 | – | IC50 (read off the curve) [3]: ~30 ng
15 | B15 | 1.1 | 2.51e+08 | 2.51e+08 | –
